For 1 substance, stoichiometry N results are on record in publication PMC3202870.

The target in the test is PA63, the cell-associated furin-cleavage product of Bacillus anthracis protective antigen (PA83) (Bacillus anthracis). Nature of the test: SDS-PAGE and phosphoimaging of 125I-PA recovered from cells.

For the substance “PA63, the cell-associated furin-cleavage product of Bacillus anthracis protective antigen (PA83) (domain or fragment)”, the stoichiometry N came out at 7.

One may read the stoichiometry N as a count of units in the complex or per binding partner.
